Source: PMC4175327

Molecular target: human beta2-microglobulin (hβ2m), monomer (human) (UniProt P61769)
Test: SPR
Conditions: 2'-fluoro C and U; 50 mM MES, 120 mM NaCl, pH 6.2; fluorescence and NMR at 25 °C (NMR plus 0.02% azide, 0.1 mM EDTA, 10% D2O); SPR temperature not stated

Chain of human beta2-microglobulin (hβ2m), monomer (human) (P61769 21-119): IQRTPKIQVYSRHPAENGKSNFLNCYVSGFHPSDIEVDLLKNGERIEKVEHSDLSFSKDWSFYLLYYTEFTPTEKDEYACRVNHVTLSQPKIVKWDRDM

GGGAAUGGAUCCACAUCUACGAAUUCUGAGCUACUCCCUUUUGGGCCCGGCUAUGAUUCACUGCAGACUUGACGAAGCUU [2'F B6 (full-length aptamer, 110 nt)]
Kd: 500 nM
